Experiment: yeast display, Sf9 membrane polyspecificity reagent, FACS + sequencing; frameworks hold sequencing errors
Summary of the method: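 Using colony PCR, genes from sorted yeast display clones were amplified, then sequenced on MiSeq at 2 × 250 and filtered by CDR length. The clones had been stained with 10% biotinylated, detergent-solubilized Sf9 membrane reagent for 1 hour at 4 °C and sorted by FACS into low and high (top ~1%) gates on anti-HA and streptavidin fluorescence. Polyreactivity labels come from the gate of origin.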

Sequence	polyreactivity (PSR sort gate)
QVQLVESGGGLVQAGGSLRLSCAASGSTFYIYGMGWYRQAPGKERELVAAISQRDGSTYYADSEKGRFTSSRDNAKNTVYLQMNSLKPEDTAVYYCNAGLWYSSYDSDYWGQGTQVTVSS	low polyreactivity
QVQLVESGGGLVQAGGSLRLSCAASGSTFYKNAMGWYRQAPGKERELVAAITRSGGSTYYADSVKGRFTISRDNAKNTVYLQMNSLKPVDTAVYYCAYYPYGYDYWGQGTQVTVSS	high polyreactivity
QVQLVESGGGLVQAGGSLRLSCAASGSTFYKYAMGWYRQAPGKERELVASISRSGGSTSYADSVKGRFTISRDNAKNTVYLQMNSLKPEDTAVYYCAATWRQHPGSMGYWGQGTQVTVSS	high polyreactivity
QVQLVESGGGLVQAGGSLRLSCAASGSTFYKYAMGWYRQAPGKERELVASISRSGGSTSYADSVKGRFTISRDNAKNTVYLQMNSLKPEDTEVYYCAATWRQHPGSMGYWGQGTQVTVSS	high polyreactivity
QVQLVESGGGLVQAGGSLRLSCAASGSTFYKYAMGWYRQAPGQVREVVASISSSGGSTYADSVKGRFTISRDNAKNTVYLQMNSLKPEDTAVYYCARVRWIVPWSGPTDDYWGQGTQVTVSS	low polyreactivity
QVQLVESGGGLVQAGGSLRLSCAASGSTFYKYGMGWYRQAPGTERELVAAISGSGDSTYYADSVKGRFTISRDNAKNTVYLQMNSLKPEDTAVYYCNAGPWWYLHEYDYWGQGTQVTVSS	low polyreactivity
QVQLVESGGGLVQAGGSLRLSCAASGSTFYLYAMGWYRQAPGKEREFVARISASGGNTYYADSVKGRFTISRDNAKNTVYLQMNSLKPEDTAVYYCATRGSRYPYVAYNYWGQGTQVTVSS	high polyreactivity
QVQLVESGGGLVQAGGSLRLSCAASGSTFYLYAMGWYRQAPGKERELVAAISSGGRTNYADSVKGRFTISLDNAKNTVYLQINSLKPEDTAVYYCAARIQWPTWSLYYYWGQGSQVTVSS	high polyreactivity
QVQLVESGGGLVQAGGSLRLSCAASGSTFYNYAMGWYRQAPGKERELVAAITSSGGSTYYADSVKGRFTISRDNAKNTVYLQMNSLKPEDTAVYYCAATRRDRRKSFTYRYDYWGQGTQVTVSS	high polyreactivity
QVQLVESGGGLVQAGGSLRLSCAASGSTFYNYAMGWYRQEPGKERELVAAINYSGGDTYYADSVKGRFTISRDNAKNTVYLQMNSLKPEDNAVYYCNAEWDYYSSNPVQNDYDYWGQGTQVTVSS	high polyreactivity
QVQLVESGGGLVQAGGSLRLSCAASGSTFYPNAMGRYRQAPGKERELVAAISRGTRTKYADSVKGRFTISRDNAKNNVYLQMNSLKPEDTAVYYCAADTGTGLDWGQGTQVNVSS	high polyreactivity
QVQLVESGGGLVQAGGSLRLSCAASGSTFYPNAMGWYIQAPGKERELVADITISGGRTYYADSVKGLFTISRDNAKNTVYLQMNSLKPEDTAVYYCNTRGIFFQSQTHDYWGQGTQVTVSS	low polyreactivity
QVQLVESGGGLVQAGGSLRLSCAASGSTFYPNAMGWYRQAPGKERELVAAISGDDSTYYADSVKGRFTISRDNAKNTVYLQMNSLKPEDTAVYYCAAGDYRIGYLYYYWGQGTQVTVSS	low polyreactivity
QVQLVESGGGLVQAGGSLRLSCAASGSTFYPNAMGWYRQAPGKERELVAAITSAGSTYYADSVKGRFTISRDNAKNTVYLQMNSLKPEDTAVYYCAKRRASRYYWGQGTQVTVSS	high polyreactivity
QVQLVESGGGLVQAGGSLRLSCAASGSTFYPNAMGWYRQAPGKERELVAAITSGGSTNYADSVKGRFTISRDNAKNTVYLQMNSLKPEDTAVYYCAAVGKYRIRSDYWGQGTQVTVSS	low polyreactivity
QVQLVESGGGLVQAGGSLRLSCAASGSTFYPNSMVWYRQAPGKERELVAAISRGTRTKYADSVKGRFTISRDNAKNSVYLQKNSLKPEDTAVYYCAADTGTGLDWGQGTQVTVSS	high polyreactivity
QVQLVESGGGLVQAGGSLRLSCAASGSTFYPYAMGGYRQAPGKERELVAAISSGGSTYYADSVKGRFTISRDNAKNTVYLQMNSLKPADTAVYYCAADFYYAYYWGQGTQVTVSS	low polyreactivity

Source: the nanobody polyreactivity screen of Harvey et al. (2022)
